From the nanobody polyreactivity screen of Harvey et al. (2022) come the findings set out here.

This data set can be described thus: yeast display, Sf9 membrane polyspecificity reagent, FACS + sequencing; frameworks hold sequencing errors. The essentials: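 Nanobodies from a synthetic yeast display library (Saccharomyces cerevisiae BJ5465), induced 36–48 hours with galactose, were stained 1 hour at 4 °C with 10% biotinylated, detergent-solubilized Sf9 membrane reagent, enriched on streptavidin microbeads, then FACS-sorted. Anti-HA (expression) and streptavidin (reagent binding) fluorescence set low and high (top ~1%) gates. Polyreactivity labels come from the gate of origin. Genes were colony-PCR amplified, MiSeq 2 × 250 sequenced and filtered by CDR length.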
“QVQLVESGGGLVQAGGSLRLSCAASGRIFDYYPKGWYRQAPGKERELVAAISVRGGSTYYADSVKGRFTISRDNAKNTVYLQMNSLKPEDTAVYYCAARSWPHRTYYYWGQGTQVTVSS”: the “polyreactivity (PSR sort gate)” value is “high polyreactivity”.

As to “QVQLVESGGGLVQAGGSLRLSCAASGSTFYYNAMGWYRQAPGKERELVAAITWGGGSTYYADSVKGRFTISRDNAKNTVYLQMNSLKPEDTAVYYCNAEDYVWYYYYYDIYDYWGQGTQVTVSS”, the “polyreactivity (PSR sort gate)” value is listed as “high polyreactivity”.

Take “QVQIVESGGGLVQAGGRLRLSCAASGSIFSIYDMGWYRQAPGKERELVAAITWGGASTYYADSVKGRFTISRDNAKNTVYLQMNSLKPEDTAVYYCAADSLTWNGTYYYWGQGTQVTVSS”: the “polyreactivity (PSR sort gate)” value is “high polyreactivity”. Next, “QVQLVESGGGLVQAGGSLRLSCAASGSMFITYTMGWYRQAPGKERELVAAITWDGGSTYYADSVKGRFTISRDNAKNTVYLQMNSLKPEDTAVYYCAKDVILVWPYATGRDYWGQGTQVTVSS”: “low polyreactivity”; “QVQLVESGGGLVQAGGSLRLSCAASGSIFNTYAMGWYRQAPGKERELVAAITWSGGSTYYADSVKGRFTISRDNAKNTVYLQMNSLKPEDTAVYYCAARQRRQSYWGQGTQVTVSS”: “high polyreactivity”. Under “QVQLVESGGGLVQAGGSLRLSCAASGSTLGYYTMGWYRQAPGKERELVAAISGSGVTTSYADSVKGRFTISRDTAKNTVYLQMNSLKPEDTAVYYCARRYRVGTTGGDYWGQGTQVTVSS” stands “high polyreactivity”; under “QVQLVESGGGLVQAGGSLRLSCAASGIIFPQNAMGWSRQAPGKERELVAAISKSGGRTYYADSVKGRFTISRDNAKNTVYVQMNSLKPEDSAVYYCAKVPYAYSRDRSAEDSWGQGTQVTVSS”, “high polyreactivity”; under “QVQLVESRGGLVQAGGSLRLSCAASGNTFQPYAMGWYRQAPGKERELVAAITWSGDTTYYADSVKARFTISRDNAKNTVYLQMNSLKPEDTAVYYCYPYFWYPDGYTYDYWGQGTQVTVSS”, “high polyreactivity”. Take “QVQLVESGGGLVQAGGSLRLSCAASGSTFFYYTIGWYRQAPGKERELVASITNRGGNTYYADSVKGRFTISRDNAKNTVYLQTNSLKPEDTAVYYCARRYYGYSGRYDYWGQGTQVTVSS”: the “polyreactivity (PSR sort gate)” value is “high polyreactivity”. Next, “QVQLVESGGGLVQAGGSLRLSCAASGFIFYNAMGWYRQAPGKESELVAAITGSGGRTYYADSVKGRFTISRDNAKNTVYLQMNSLKPEDTAVYYCAADGYVRTVTSGWALRMGYWGQGTQVTVSS”: “high polyreactivity”; “QVQLVESGGGLLQAGGSLRLSCAASGPTFAYYAMGWYRQATGKERELVAAIDSSGGSTYYADSVKGRFTISRDNSNNSVYLQMNSLKPEDTAVNYCAASYPYDRYDQGGFGYWGQGTQVTVSS”: “low polyreactivity”; “QVQLVDSGGGLVQAGGSLRLSCAASGSTFVYYAMGWYRQAPGKERELVAAISSGGRTYYADSVKGRFTISRDNAKNTVYFQMNSLKPEDTAVYYCATYPRYSKSPGYDSWGQGTQVTVSS”: “high polyreactivity”. With “QVQLVESGGGLVQAGGSLRLSCAASGFIFQPYAMGWYRPAPGKERELVAGITGSGGNTYYADSVKGRFTISRDNAKNTVYLQMNSLKPEDTAVYYCAARRHIFLLIIWSGRVDYWGQGTEVTVSS”, the “polyreactivity (PSR sort gate)” value is “low polyreactivity”. “QVQLVESGGGLVQAGGSLRLSCAASGFIVASNAMGGDRQAPGKVRELLAAINSSAGSTYYADSVKGRFTISRDNAKNTVYLQMNSQKPEDTAVYYCNRDDGSVYRRHRRPYYYWGQRTQVTVSS”: the “polyreactivity (PSR sort gate)” value is given as “low polyreactivity”. Next, “QVQLVESGGGLVQAGGSLRLSCAASGGIFVTYTMGWYRQAPGKERELVAGINSRSGSTYADSVKGRFTISRDNAKNTVYLQMNSLKLEDTAVYYCAADRIDLGRASRYGYWGQGTQVTVSS”: “low polyreactivity”; “QVQLLESGGGFVQAGGSLRLSCAASGQTFHGNTMGWYRQAPGKERELVAAISFDGGNTYADSVKGRFTKSRDNAKTSVYLHMNSLKPEDSAVYYDYWGPGTQVTVSS”: “low polyreactivity”. For “QVQLVESGGCLVQAGGSLRLSCAASGRIFPGYAMGWYRQAPGKEREFVAAITASGGTTYYADSVKGRFTISRDNAKNTVYLQMNSLKPEDTAVYYCAKYRYTVAGYNYWGQGTQVTVSS”, the “polyreactivity (PSR sort gate)” value is “high polyreactivity”. For “QVQLVESGGGLVQARGSLRLSCAASGSIFAQYAMGWYRQAPGKERELVAAITRSTGRTYYADSVKGRFTISRDNANNTVYLQMNSLKPEDTSVYYGNARQRQSKYYPYTTFTYDYWGQGTQVTVSS”, the “polyreactivity (PSR sort gate)” value is “high polyreactivity”. Under “QVQLVESGGGLVQAGGSLRLSCAASGSIFYLYAMGWYRQAPGKERELVATISLSSGSTYAASVKGRFTISRDNAKNTVYLQMNSLKPEDTAVDYCAKDLTRWGYNEYDYWGQGTQVSVSS” stands “low polyreactivity”; under “QVQLVESGGGLVQAGGSLRLSCAASGITFGANAMGWYRQAPGKERELVADITWSGGDTYYADSVKGRFTISRDNAKNTVYLQMNSLKPEDTAVYYCNALQPGLGSPLGEYDYWGQGTQVTVSS”, “low polyreactivity”; under “QVNLVESGGGLVQAGGSLRLSCAASGLIFFYAMGWYRQAPGKERELVAGISSGGNTNYGDSVKGRFTISRDNAKNTVYLQMNSLKPEDTAVYYCNARGFTGDHQWYLWARPLYDYWGQGTQVTVSS”, “high polyreactivity”. With “QVQLVESGGGLVQAGGSLRLSCAASGSTFVPYTMGWYRQAPGKERELVAAISGSGGTDYADSVKGRFTISRDNAKNTVYLQMNSLKPEDTAVYYCATDGLDFWFIYDYWGQGTQVTVSS”, the “polyreactivity (PSR sort gate)” value is “low polyreactivity”. Next, “QVQLVESGGGLVQAGGSLRLSCAASGFTFIRYAMGWYRQAPGKERELVARITSGGSTYYADSVKGRFTISRDNAKNTVYLQMNSLKPEDTAVYYCNADKWYIIQGYYWPGYEYWGQGTQVTVSS”: “low polyreactivity”; “QVQLVESGGGLVQAGGSLRLSCAASGSTFLVNAKGWYRQAPGKEWEFVAAITGNAGSTYYADSVKGRFTISRDNEKYTVYLQMNSLKPEDTAVYYCAAALPGYDGDYWGQGTQVTVSS”: “low polyreactivity”. Take “QVQLVESGGGLVQAGGSLRLICAASGSTFGANAMGWYRQAPGKEREFVAAISGSGTTTYYADSVKGRFTISRDNAKNTVYLQMNSLKPEDTPVYYCAKTRKAHWLEYWGQGTQVTVSS”: the “polyreactivity (PSR sort gate)” value was “low polyreactivity”.

As for “QVQLVESGGGLVQAGGSLRLSCAASGRIFSRNAMGWYIQAPGKERELVAAISRSGTSTYYADSVKGRFTISRDNAKYTVYLQMNSLKPEDTAVYYCAADYPAVISIRRYDYWGQGTQVTVSS”, the “polyreactivity (PSR sort gate)” value is reported as “low polyreactivity”. On to “QVQLVESGGGLVQAGGSLRLSCAASGSTFTYYTMGWYRQAPGKERELVAAISRTTGSTYYADSVKGRFTISRDNAKNTVYLQMNSLKPEDTAVYYCAADYYTRYQYGYWGQGTQVTVSS”, for which the “polyreactivity (PSR sort gate)” value is “low polyreactivity”. Next, “QVQLVESGGGLVQAGGSLRLSCAASGSTFTTYAMGWYRQAPGKERELVAAISKSGGSTYYADSVKGRFTISRDNAKNTVYLQMNSLKPEDTAVYYCATSFRSTARKYGYWGQGTQVTVSS”: “high polyreactivity”; “QVQLVESGGGLVQAGGSLRLSCAASGRIFRPYAMGWYRQAPGKERELVAGITSSGGSTYYADSVKGRYTISRDNAKNTVYLQMNSLKPEDTAVYYCAAVHGLFRPLHYYWGQGTQVTVSS”: “low polyreactivity”; “QVQLVESGGGLVQAGGSLRLSCAASGLTFYKNAMGWYRQAPGKVRELVAVISSSGGSTYYADSVKGRFTISRDKAKNTVYLQMNSLKPEDTAVYYCARDLYTEYRWGRLTYDYWGQGTQVTVSS”: “low polyreactivity”. Under “QVHLVESGVGLVQAGGTLRLSCAASGRTFRVYALVWYRQAPGKERELVAAITWNGGSTYYADSVKGRFTISRDNAKNNVYLQMNRLKPEDTAVYYSAAARYAYNIWSGAYDYWGQGTQVTVSS” stands “high polyreactivity”; under “QVQLVESGGGLVQAGGRLRLTCAASGYIFDVNAMGWYRHAPGKERELVAAISQRGTRTYYADSVKGRFTISRDNAKNSVYLQMNSLKPEDTAVYFCNRGGWRQYDSWVQGTQVTVSS”, “high polyreactivity”. Next, “QVQLVESGGGLVQAGGSLRLSCAASGRIFWFYAMGWYRQATGKERELVAAINTSVGRTHYADSVKGRFTISRDNAKNTVYLQMNSLKPEDTAVYYCASDVKRYGWEYGYWGQGTQVTVSS”: “low polyreactivity”; “QLQLVESGGGLVQAGGSLSLSCAASGSIFGYNAMGWYRPAPGKEREFVAAISFRGTSTYYADSVKGRFTISRDNAKNPVYLQMYSLKPEDTAVYYCAARSYDGDHYKHGYWGQGTQVTVSS”: “high polyreactivity”. Turning to “QVQLVESGGGLFQAGGSLRLSCAASGSIFRYYAMGWYRQAPGKERELVARISWRGGSTYADSVKGRFTISRDNAKNTVYLQMNSLKPEDTAVYYCAGVLAVGSYDYWGQGTQVTVSS”, the “polyreactivity (PSR sort gate)” value is “low polyreactivity”. Next, “QVQLVESGGGLVQAGGSLRLSCADSGFTFSSYAMGWYRQAPGKDRELVAAISTRGGSTYYADSVKGRFTISRDYANKTVYLQMNSLKPEDTAVYYCATGGRGGRRYEYWGQGTQVTVSS”: “low polyreactivity”; “QVQLVESGGGLFQAGGSLRLSCAASGRTFSHNGMGWYRQAPGKERELVATINRGGNTYYADSVKGRFTISRDNAKNTVYLQMNSLKPEDTAVYYCAARRSFLFDEGNYWGQGTQVTVSS”: “low polyreactivity”. Turning to “QVQLVESGGGLVQAGGSLRLSCDASGFIFYEYAMGWSRQAPGKEREFVAAISRSGTRTYYADSVKGRFTISRDNAKNTVYLQMNSLKPEDTAVYYCAAAYYGYARWRGPRKMDYWGQGTQVTVSS”, the “polyreactivity (PSR sort gate)” value is reported as “high polyreactivity”. Next, “QVQLVESGGGLVQAGGSLRLSCAASGIIFTYYAMGWYRQAPGKEREFVAAISNGGSNTRYADSVKGRFTISRDNAKNTVYLQMNSLKPEDTAVYYCAARAYQHYNWGQGTQVTVSS”: “high polyreactivity”; “QVQLVESGGGLVQAGGSLRLSCAASGFTISPYAMGWYRQAPGKERELVAGITRNGGSTYYADSVKGRFTISRDNAKNTVYLQMNSLKPEDTAVYYCITKYAVEFDYWGQGTQVTVSS”: “low polyreactivity”; “QVQLVESGGGLVQAGGSLRLSCAASGIIFAQYVMGWYRQAPGKERQLVAAIRTSGGRTYYADSVKGRFTISRDHAKITVYLQMISLKPVDTAVYYCAAYGKPTFRSVDYWGQGTQVTVSS”: “high polyreactivity”.
